In assay [1] the target is T1, Pgp3 (Campylobacter jejuni, UniProt A0AAD2UT50).
T1 construct: gene A8118_01115; residues 21-273 (Glu21 to Gln273 in Methods, Asn273 in Results) without N-terminal 20 residues, of 274 aa; expressed in E. coli Rosetta2 (DE3); Zn enzyme
The experiment in a line: LC/MS turnover assay. Type of assay: biochemical. The conditions noted are these: D,D-endopeptidase; 50 mM Tris pH 7.5, 23 °C.

For assay [2], the target named is Pgp3 H247A mutant, residues 21-273 (C. jejuni (strain ATCC 33560)). The experiment in a line: crystal structure; H247A protein (10 mg/mL, 20 mM Tris-HCl pH 8.0, 200 mM NaCl) mixed with peptide in a 1:10 molar ratio, 277 K for 1 h; crystals grown at 296 K in 1.8 M ammonium citrate tribasic pH 7.0.

T1 sequence (A0AAD2UT50 entry or part of it): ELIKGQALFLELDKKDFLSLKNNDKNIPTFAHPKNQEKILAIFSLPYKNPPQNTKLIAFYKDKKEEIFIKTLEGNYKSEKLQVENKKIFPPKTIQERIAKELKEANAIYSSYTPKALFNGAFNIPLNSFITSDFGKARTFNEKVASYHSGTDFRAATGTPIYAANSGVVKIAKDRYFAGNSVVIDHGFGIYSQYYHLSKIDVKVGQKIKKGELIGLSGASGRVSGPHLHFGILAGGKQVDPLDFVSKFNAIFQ

Consider `CO[C@@H]1O[C@H](CO)[C@@H](O)[C@H](O[C@H](C)C(=O)N[C@@H](C)C(=O)N[C@H](CCC(=O)N[C@@H](CCC[C@@H](NC(=O)[C@@H](C)NC(=O)[C@H](CCC[C@@H](N)C(=O)O)NC(=O)CC[C@@H](NC(=O)[C@H](C)NC(=O)[C@@H](C)O[C@H]2[C@H](O)[C@@H](CO)O[C@@H](OC)[C@@H]2NC(C)=O)C(=O)O)C(=O)O)C(=O)O)C(=O)O)[C@H]1NC(C)=O` [compound 2, crosslinked muramyl tetra-tri peptide], for which, in assay [1], the LC/MS turnover assay entry was “Pgp3 exhibited both D,D-carboxypeptidase and D,D-endopeptidase activities based on LC/MS analysis”.

Regarding “crosslinked muramyl tetra-tri peptide 2, NAM-L-Ala1-γ-D-Glu2-mDAP3-D-Ala4-mDAP3-γ-D-Glu2-Ala1-NAM”, in assay [2], the stoichiometry N (commonly a count of units in the complex or per binding partner) turned out to be 1. The same measure, in the same setting: in the case of “pentapeptide 1, Ac-L-Ala1-γ-D-Glu2-mDAP3-D-Ala4-D-Ala5” it was 1.
